Test results from paper PMC12508155 (Nature Communications, 2025).

Columns and labels:
[1] = tested on: Gd-II riboswitch (guanidine class II riboswitch) (RNA, riboswitch) GCCCUAGGGACGACCCUAGAAGGCCAAGCAACCUGCGGGACGACCCGC; assay: in-line probing; details: 100 mM KCl, 20 mM MgCl2, 50 mM Tris-HCl pH 8.3, 25 °C, 40 h; for apparent KD: Hill fit, two binding sites
MgdL = biological target: T1, MgdL (Vreelandella boliviensis, UniProt A0A265DXW6); assay: LC-MS time course, coupled with MgdH; format: biochemical; details: N-(hydroxymethyl)guanidine formed in situ by MgdH from 0.5 mM methylguanidine with 5 mM 2-OG; MgdL 20 µg/mL
T1 construct: gene CE457_11615; full length, N-terminal 6xHis tag with TEV site (cleavage not mentioned), expressed in E. coli BL21
T1 sequence (A0A265DXW6 1-250): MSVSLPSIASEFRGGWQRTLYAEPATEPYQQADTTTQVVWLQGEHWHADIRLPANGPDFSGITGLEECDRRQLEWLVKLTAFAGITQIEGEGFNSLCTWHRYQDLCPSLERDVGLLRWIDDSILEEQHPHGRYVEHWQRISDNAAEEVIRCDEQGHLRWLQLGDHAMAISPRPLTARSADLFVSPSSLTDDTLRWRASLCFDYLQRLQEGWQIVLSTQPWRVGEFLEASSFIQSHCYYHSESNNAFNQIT

[2] = substrate: O=C(O)CCC(=O)C(=O)O; assay: oxygen consumption, Clark-type electrode; format: biochemical, Vreelandella boliviensis; details: methylguanidine fixed at 2.5 mM, Fe(II), ascorbate, MOPS pH 7.2, 30 °C
[3] = substrate: CNC(=N)N; assay: oxygen consumption, Clark-type electrode; format: biochemical, Vreelandella boliviensis; details: 2-OG fixed at 10 mM (5 mM in Methods), Fe(II), ascorbate, MOPS pH 7.2, 30 °C
[4] = substrate: CN(C)C(=N)N; assay: oxygen consumption, Clark-type electrode; format: biochemical, Vreelandella boliviensis; details: 2-OG 5 mM, Fe(II), ascorbate, MOPS pH 7.2, 30 °C

## CNC(=N)N
[1]
  apparent KD: 83 ± 5 µM

## CN(C)C(=N)N
[1]; no conformational change, highest concentration not in material
  binding: no

## N=C(N)NCO [N-(hydroxymethyl)guanidine]
MgdL
  LC-MS time course, coupled with MgdH: its presence clearly accelerated the fragmentation of N-(hydroxymethyl)guanidine

## N=C(N)N
[1]
  apparent KD: 93 ± 6 µM

B1: MgdH (Vreelandella boliviensis LC1) (protein)
chain: MSQASNDLRLADFQAIPVIDIGDLLSGDLNARKAVAEQLGRAAREVGFFQMVGHGINPSLRQGLINQAKRFFAQPTETKMERYIGLYHHHRGYVPPGEESPDPNNPDMKEAFDLAFELPSDDPDVLAGTALLGPNPWPALEGFRQPVAAYYDAAYQVGRALMGGFALALGHEESHFLHHVTKPPSQLRLIHYPYNPDAEDAQGIGAHTDYECFTLLLPTAPGLEVMNGAGEWIDVPFRDDALVVNIGDMLEIWSNGEFVATSHRVRKVKEERYSFPLFFACDYHTVVAPLPELVKRHGQAFYPPLKAGDHLYAQTIQTFNYLRERLARGEIALPDGAREVGSLGQHGKHKETP
notes: full length, N-terminal 6xHis tag with TEV site (cleavage not mentioned), expressed in E. coli BL21, 41 kDa
[2]
  Km: 0.53 ± 0.05 mM
  kcat: 20.5 ± 0.5 s⁻¹
[3]
  Km: 0.16 ± 0.01 mM
  kcat: 19.6 ± 0.4 s⁻¹
[4]
  Km: 0.25 ± 0.01 mM
  kcat: 17.3 ± 0.2 s⁻¹
